Assay results from patent US20200270319A1 (KOLON TISSUEGENE, published 2020).

Target: Recombinant human PTEN protein (human, UniProt P60483 1-403 (dog entry))
Experiment: cell-based or functional assay

Chain of Recombinant human PTEN protein (P60483 whole entry): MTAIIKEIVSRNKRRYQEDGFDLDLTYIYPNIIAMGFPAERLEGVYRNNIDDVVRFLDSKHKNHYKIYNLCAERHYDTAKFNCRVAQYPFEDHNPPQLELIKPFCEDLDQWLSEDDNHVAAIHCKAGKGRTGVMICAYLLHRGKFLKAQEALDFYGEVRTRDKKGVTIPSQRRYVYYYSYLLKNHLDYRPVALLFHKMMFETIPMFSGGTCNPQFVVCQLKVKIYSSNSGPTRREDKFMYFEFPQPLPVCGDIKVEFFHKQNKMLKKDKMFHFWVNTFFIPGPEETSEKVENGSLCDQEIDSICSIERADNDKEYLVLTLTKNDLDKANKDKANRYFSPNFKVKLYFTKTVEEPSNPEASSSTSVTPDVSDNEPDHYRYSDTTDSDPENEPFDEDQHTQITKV

Binder: RRRRRRRRHYRYVDTTDVDPENEPFDEDQHTQITKV (C-terminal amide) [TGN-3 peptide]
- IC50, in vitro PTEN activity assay (lipid phosphatase, C8-PIP3 liposome, Malachite Green): 87.1 µM
- PTEN activity remaining with 10 µM peptide, compared with positive control: 86%
